Changes are numbered by the printed parent chain.

The target of experiment [1] is T1, Recombinant extracellular domain of human FOLR1 (Novoprotein, Cat#: C784) (human, UniProt P15328 25-233, limits assumed).
T1 construct: Bought reagent; also called recombinant FOLR1; immobilized FOLR1 extracellular domain
The experiment in a line: ELISA on plate-coated recombinant human FOLR1 extracellular domain; anti-human IgG-HRP; O.D. 450 nm. As to the method: The Purified chimeric mAbs were tested in an ELISA assay for their ability to bind to immobilized human FOLR1. Recombinant extracellular domain of human FOLR1 (Novoprotein, Cat#: C784) in carbonate coating buffer was coated on a 96-well plate at room temperature for 1 hour. The plate is blocked by 5% BSA in TBST for 1 hour at room temperature. In each well of an individual plate, mAbs at various concentrations were incubated for 1 hour at room temperature. The plate was washed and the binding to FOLR1 was detected by anti-human IgG conjugated to horseradish peroxidase (hIgG-HRP) (ThermoFisher Scientific, Cat#: H10007) with incubation for 1 hour at room temperature. Then after washing, the ELISA was developed using One-step Detection Solution (ThermoFisher Scientific, Cat#: 34028) and measured as the absorbance at 450 nm.
(In general: An ELISA detects its analyte on a solid surface through an enzyme-linked reagent.)

Experiment [2] has as its target T1, Recombinant extracellular domain of …. The experiment in a line: SPR (Biacore 8k), mAb captured on protein A chip, recombinant FOLR1 as analyte, 1:1 model. On the procedure: The interaction of the chimeric anti-FOLR1 mAbs and FOLR1 was measured by Surface Plasmon Resonance (SPR) (Biacore 8k, GE Healthcare). Briefly, an anti-FOLR1 mAb was immobilized to a protein A sensor chip (GE Healthcare, Cat#: 29-1275-56) in HBS-P buffer (0.01 M HEPES pH 7.4, 0.15 M NaCl, 0.05% v/v Surfactant P20) with an injection flow rate at […]. The recombinant FOLR1 (Novoprotein, Cat#: C784) at variant concentrations was loaded with the flow rate of 30 μL/min in HBS-P buffer. Following antigen loading, the surface was regenerated with 10 mM glycine-HCl (pH 1.5). Sensor grams were fit with a 1:1 binding model using Biacore 8k evaluation software (GE Healthcare).
Background: SPR reads the build-up and loss of mass on a sensor chip optically.

Experiment [3] concerns the target T2, FOLR1 on SK-OV-3 cells (ATCC HTB-77) (Homo sapiens (Human), UniProt P15328 25-234).
T2 construct: Endogenous FOLR1 of the cell line; also called cells that are known to express FOLR1
The experiment in a line: FACS on SK-OV-3 cells; Alexa Fluor 488 F(ab')2 goat anti-human IgG Fc; MFI. As to the method: To assess the binding of the chimeric anti-FOLR1 mAbs to cells that are known to express FOLR1, SK-OV-3 (ATCC® HTB-77™) cells were plated at 80,000 cells per well on a 96-well non-binding U-bottom plate (Greiner Bio-One, Cat#: 650901). In some experiments, 90,000 cells per well were used. The cells were incubated in 50 μL FACS buffer (HBSS with 0.1% BSA and 0.05% sodium azide) containing mAbs at different concentrations on ice for 15 minutes. After wash, cells were incubated in 50 μL FACS buffer containing 3.5 μg/mL F(ab′)2-Goat anti-Human IgG Fc conjugated to Alexa Fluor® 488 (Invitrogen, Cat#: H10120) on ice for 15 minutes in dark and washed again. Cells were analyzed using an Attune NxT flow cytometer. MFI, mean fluorescence intensity.

The target of experiment [4] is T1, Recombinant extracellular domain of …. The experiment in a line: ELISA on immobilized FOLR1 extracellular domain; O.D. 450 nm.
Experiment [5] addresses T2, FOLR1 on SK-OV-3 cells (ATCC HTB-77). The experiment in a line: FACS on SK-OV-3 cells; MFI.
In experiment [6] the target is T1, Recombinant extracellular domain of …. The experiment in a line: ELISA on immobilized FOLR1 extracellular domain; O.D. 450 nm. This is another data set of the same source.
In experiment [7] the target is T2, FOLR1 on SK-OV-3 cells (ATCC HTB-77). The experiment in a line: FACS on SK-OV-3 cells; MFI. The source holds these as a separate data set.
In experiment [8] the target is T1, Recombinant extracellular domain of …. The experiment in a line: ELISA on immobilized FOLR1 extracellular domain; O.D. 450 nm. This is another data set of the same source.
Experiment [9] has as its target T2, FOLR1 on SK-OV-3 cells (ATCC HTB-77). The experiment in a line: FACS on SK-OV-3 cells; MFI. This is another data set of the same source.
The target in experiment [10] is T1, Recombinant extracellular domain of …. The experiment in a line: ELISA on immobilized FOLR1 extracellular domain; O.D. 450 nm. This is another data set of the same source.
Experiment [11] has the same target. Described as above. The source holds these as a separate data set.
For experiment [12] the target is unchanged. The experiment is described as above. This is another data set of the same source.
Experiment [13] has the same target. Described as above. This is another data set of the same source.

T2 sequence (P15328 25-234 limits assumed): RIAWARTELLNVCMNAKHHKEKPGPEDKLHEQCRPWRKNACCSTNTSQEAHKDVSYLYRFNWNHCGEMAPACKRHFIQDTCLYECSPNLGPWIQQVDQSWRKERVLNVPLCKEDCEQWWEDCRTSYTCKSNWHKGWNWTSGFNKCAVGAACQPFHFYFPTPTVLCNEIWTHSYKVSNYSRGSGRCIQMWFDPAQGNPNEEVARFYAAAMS
T1 sequence (P15328 25-233 limits assumed): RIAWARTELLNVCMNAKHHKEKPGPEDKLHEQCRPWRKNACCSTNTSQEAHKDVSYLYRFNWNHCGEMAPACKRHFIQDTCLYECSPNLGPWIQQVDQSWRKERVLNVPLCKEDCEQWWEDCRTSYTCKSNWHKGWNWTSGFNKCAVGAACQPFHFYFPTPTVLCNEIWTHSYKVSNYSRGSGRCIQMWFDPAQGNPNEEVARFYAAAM

B1: chimeric anti-FOLR1 mAb F10 (antibody, V domains shown)
VH: QVQLQQSGPELVKPGASVKISCKASGYAFSSSWMNWVRQRPGKGLEWIGRIYPGDGYTHYNGMFKGKATLTADKSSSTGYMQLSSLTSEDSAVYFCTRHGDFPYWYFDVWGTGTTVTVSS
VL: DIQMTQSPASLSASVGESVTITCRASENIDSYLAWYQQKQGKSPQLLVYAATNLAVGVPSRFSGSGSGTQYTLKINSLQSEDVARYYCQHHYSTPPTFGGGTKLEIK
notes: also called Chimeric mAb F10
The term EC50 (read off the curve) denotes the concentration giving half of the maximal effect. As usually defined, the Kd is a measure of binding affinity in units of concentration. For B1, the concentration for a half-maximal effect (EC50 (read off the curve)) was around 0.2 nM in experiment [1], around 0.9 nM in experiment [3] and around 0.2 nM in experiment [4]. Also, the Kd in experiment [2] was found to be 0.704 nM.

B2: F10-H1L3 (antibody, V domains shown)
VH: EVQLVQSGAEVKKPGSSVKVSCKASGYAFSSSWMNWVRQAPGQGLEWIGRIYPGDGYTHYNGMFKGRASLTADKSTSTGYMELSSLRSEDTAVFFCTRHGDFPYWYFDVWGRGTLVTVSP
VL: DIQMTQSPSTLSASVGDRVTITCRASENIDSYLAWYQQKPGRAPKLLVYAATNLAVGVPSRFSGSGSGTEYTLTISSLQSEDFATYYCQHHYSTPPTFGQGTKLEIK
notes: also called humanized F10 mAb H1L3
With B2, in experiment [5], the 50% effective concentration (EC50 (read off the curve)) was around 3 nM.

B3: F20-H2L2 (antibody, V domains shown)
VH: QVQLVQSGAEVKKPGSSVKVSCKASGYTFASYYLYWVRQAPGQGLEWIGEINPRSGGTNFNEKFKSRATVTVDASTSTAYMELSSLRSEDTAVYYCSRSGRLRGFYTMDYWGQGTLVTVSS
VL: DIVMTQSPDSLAVSLGERATINCKAGENVGSYVSWYQQKPGQSPKLLIYGASNRYTGVPDRFSGSGSATDFTLTISSLQAEDVAVYYCGQTYRFLTFGQGTKVEIK
notes: also called humanized F20 mAb H2L2
B3: the binding result in experiment [6] and in [7] was “binds” in each case.

B4: F20-H3L4 (antibody, V domains shown)
VH: B3 VH with R67K, A74K, S77N
VL: DIQMTQSPSTLSASVGDRVTITCKAGENVGSYVSWYQQKPGKAPKLLIYGASNRYTGVPARFSGSGSATEFTLTISSLQPEDFATYYCGQTYRFLTFGQGTKVEVK
notes: also called humanized F20 mAb H3L4
Take B4: the figures for the “EC50 (read off the curve)” value in experiment [8] and in [9] were around 0.3 nM and around 1 nM, respectively.

B5: F20-H1L4 (antibody, V domains shown)
VH: B3 VH with A74K
VL: B4 VL
notes: also called humanized F20 mAb H1L4
For B5, the 50% effective concentration (EC50 (read off the curve)) in [8] is around 0.3 nM.

B6: F20-H2L3 (antibody, V domains shown)
VH: B3 VH
VL: B4 VL with E81D
notes: also called humanized F20 mAb H2L3
As to B6, the concentration for a half-maximal effect (EC50 (read off the curve)) in experiment [6] was around 0.3 nM.

B7: F20-H2L1 (antibody, V domains shown)
VH: B3 VH
VL: B3 VL with S43P
notes: also called humanized F20 mAb H2L1
Take B7: the binding result in experiment [6] and in [7] was “binds” in each case.

B8: F5-H2L1 (antibody, V domains shown)
VH: EVQLVESGGGLVQPGGSLRLSCAVSGFTFSNYGMSWVRQAPGKGLEWVATISSGGSYTYYPDSVKGRFTISRDNSKNTLYLQMNSLRAEDTAVYYCSTQGSSGYVGYWGQGTLVTVSS
VL: DIQMTQSPSSVSASVGDRVTITCKASQDITNFIGWYQHKPGKAPKLLISYTSILESGVPSRFSGSGSGRDYTLTISSLQPEDFATYYCLQYYNLWTFGGGTKVEIK
notes: also called humanized F5 mAb H2L1
As to B8, the “EC50 (read off the curve)” value in experiment [10] is around 0.3 nM.

B9: F5-H4L1 (antibody, V domains shown)
VH: B8 VH with S75D, N84S
VL: B8 VL
notes: also called humanized F5 mAb H4L1
For the molecule B9, the “EC50 (read off the curve)” value in [11] is around 0.4 nM.

B10: F5-H1L1 (antibody, V domains shown)
VH: B8 VH with V5L
VL: B8 VL
notes: also called humanized F5 mAb H1L1
As for B10, in experiment [10], the “EC50 (read off the curve)” value is around 0.4 nM.

B11: F5-H4L2 (antibody, V domains shown)
VH: B8 VH with S75D, N84S
VL: B8 VL with R69T
notes: also called humanized F5 mAb H4L2
Turning to B11, in experiment [11], the “EC50 (read off the curve)” value is around 0.4 nM.

B12: F17-H1L1 (antibody, V domains shown)
VH: EVQLVETGGGLIQPGGSLRLSCAASGFTFSDFGMHWIRQAPGKGLEWVAYMSYTPGTFHYADTVKDRFTISRDNSKNTLYLQMNSLRAEDTAVYYCARVHVGTVDYWGQGTLVTVSS
VL: EVVLTQSPATLSLSPGERATLSCRASQNINNNLHWFQQKPGQAPRLLIKYASQSISGIPARFSGSGSGTDFTLTISSLEPEDFAVYFCQQSNSWPALTFGQGTKVEIK
notes: also called humanized F17 mAb H1L1
Consider B12, for which the concentration for a half-maximal effect (EC50 (read off the curve)) in [12] was in the range of 0.1 to 0.2 nM.

B13: chimeric anti-FOLR1 mAb F5 (antibody, V domains shown)
VH: EVQLVESGGELVKPGGSLKLSCAVSGFTFSNYGMSWVRQTPDKRLEWVATISSGGSYTYYPDSVKGRFTISRDNDKNTLYLQMSSLKSEDTAMYYCSTQGSSGYVGYWGQGTTLTVSS
VL: DIQMTQSPSSLSAFLGGKVTITCKASQDITNFIGWYQHKPGKGPRLLISYTSILESGIPSRFSGSGSGRDYSFSISNLEPEDIATYYCLQYYNLWTFGGGTKLEIK
notes: also called Chimeric mAb F5
Regarding B13, the “EC50 (read off the curve)” value in experiment [1] was around 0.1 nM; in experiment [13], 0.2 to 0.3 nM; in experiment [10], 0.1 to 0.2 nM; in experiment [3] it was around 0.4 nM. Further, the Kd in experiment [2] is 0.352 nM.

The values are drawn from patent publication US20210002363A1 (PHANES THERAPEUTICS, published 2021).
